Measurements taken from US20250197499A1 (STEALTH IO, published 2025).

T1: Recombinant human PD-L2-His tag (ACROBiosystems, #PD2-H5220) (human, UniProt Q9BQ51 20-219)
T1 construct: Bought protein; also called sPD-L2; human PD-L2-His tag protein; not shown: His tag
T1 sequence (looked up): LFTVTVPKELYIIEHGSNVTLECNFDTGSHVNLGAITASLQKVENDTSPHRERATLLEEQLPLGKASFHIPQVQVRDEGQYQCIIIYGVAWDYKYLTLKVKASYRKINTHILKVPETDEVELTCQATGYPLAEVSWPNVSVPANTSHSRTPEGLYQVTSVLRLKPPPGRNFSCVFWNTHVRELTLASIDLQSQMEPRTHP


Legend:
[1] = molecular target: T2, Recombinant human PD-L1-His tag (ACROBiosystems, #PD1-H5229) (human, UniProt Q9NZQ7 19-238); assay: Octet RED96e; PD-L1-His loaded at 10 µg/ml on HIS1K sensor; sample 66,7 nM; negative control, response about zero, round fit values
T2 construct: Bought protein; also called sPD-L1; human PD-L1-His tag protein; not shown: His tag
Description: (§1) FIG. 3a is a graph of Octet binding studies on sPD-L1. Recombinant human PD-L1-His tag (ACROBiosystems, #PD1-H5229) was loaded to His-sensor (HIS1K (Anti-Penta-His)) at 10 μg/ml and the binding of each construct was evaluated by Octet RED96e.
(§2) FIG. 3c is a graph depicting the KD values of anti-CD28/sPD-1 constructs on human PD-L1-His tag protein by Octet RED96e. The equilibrium dissociation constant (KD) is calculated as the ratio koff/kₒₙ (with koff:dissociation rates, and kₒₙ:association rates).
(§3) Anti-CD28/sPD-1 antibody fusion constructs were assessed for their ability to bind PD-1 ligands, PD-L1 and PD-L2 by Octet RED96e. Recombinant human PD-L1-His tag (ACROBiosystems, #PD1-H5229) or recombinant human PD-L2-His tag (ACROBiosystems, #PD2-H5220) were loaded to His-sensor (HIS1 K (Anti-Penta-His)) at 10 μg/ml. […] FIG. 3c is a summary of affinity (measured as Kd, M) for each construct on human PD-L1. […] FIG. 4c is a summary of affinity (measured as Kd, M) for each construct on human PD-L2.

[2] = molecular target: T1, Recombinant human PD-L2-His tag …; assay: Octet RED96e; PD-L2-His loaded at 10 µg/ml on HIS1K sensor; sample 66,7 nM; negative control, response about zero, round fit values
Description: (§4) FIG. 4a is a graph of Octet binding studies on sPD-L2. Recombinant human PD-L2-His tag (ACROBiosystems, #PD2-H5220) was loaded to His-sensor (HIS1 K (Anti-Penta-His)) at 10 μg/ml and the binding of each construct was evaluated by Octet RED96e.
(§5) FIG. 4c is a graph depicting the KD values of anti-CD28/sPD-1 constructs on human PD-L2-His tag protein by Octet RED96e. The equilibrium dissociation constant (KD) is calculated as the ratio koff/kₒₙ (with koff:dissociation rates, and kₒₙ:association rates).
as §3

[3] = molecular target: T2, Recombinant human PD-L1-His tag …; assay: Octet RED96e; PD-L1-His loaded at 10 µg/ml on HIS1K sensor; sample 75,8 nM
Description: as §1, §2, §3

[4] = molecular target: T1, Recombinant human PD-L2-His tag …; assay: Octet RED96e; PD-L2-His loaded at 10 µg/ml on HIS1K sensor; sample 75,8 nM
Description: as §4, §5, §3

[5] = molecular target: T2, Recombinant human PD-L1-His tag …; assay: Octet RED96e; PD-L1-His loaded at 10 µg/ml on HIS1K sensor; sample 378,8 nM
Description: as §1, §2, §3

[6] = molecular target: T1, Recombinant human PD-L2-His tag …; assay: Octet RED96e; PD-L2-His loaded at 10 µg/ml on HIS1K sensor; sample 378,8 nM
Description: as §4, §5, §3

[7] = molecular target: T2, Recombinant human PD-L1-His tag …; assay: Octet RED96e; PD-L1-His loaded at 10 µg/ml on HIS1K sensor; sample 55,6 nM
Description: as §1, §2, §3

[8] = molecular target: T1, Recombinant human PD-L2-His tag …; assay: Octet RED96e; PD-L2-His loaded at 10 µg/ml on HIS1K sensor; sample 55,6 nM
Description: as §4, §5, §3

[9] = molecular target: T2, Recombinant human PD-L1-His tag …; assay: Octet RED96e; PD-L1-His loaded at 10 µg/ml on HIS1K sensor; sample 277,8 nM
Description: as §1, §2, §3

[10] = molecular target: T1, Recombinant human PD-L2-His tag …; assay: Octet RED96e; PD-L2-His loaded at 10 µg/ml on HIS1K sensor; sample 277,8 nM
Description: as §4, §5, §3

Row | Kd [3] | koff [3] | kon [3] | Kd [4] | koff [4] | kon [4] | Kd [5] | koff [5] | kon [5] | Kd [6] | koff [6] | kon [6] | Binder | other results
1 | – | – | – | – | – | – | – | – | – | – | – | – | Monoclonal anti-CD28 (9.3) mAb (GeneTex, #GTX14664) (antibody, V domains shown, Bought 9.3 mAb without sPD-1 fusion; also called monoclonal antibody 9.3) VH: EVKLQQSGPGLVTPSQSLSITCTVSGFSLSDYGVHWVRQSPGQGLEWLGVIWAGGGTNYNSALMSRKSISKDNSKSQVFLKMNSLQADDTAVYYCARDKGYSYYYSMDYWGQGTSVTVSS VL: DIELTQSPASLAVSLGQRATISCRASESVEYYVTSLMQWYQQKPGQPPKLLIFAASNVESGVPARFSGSGSGTNFSLNIHPVDEDDVAMYFCQQSRKVPYTFGGGTKLEIK | Kd [1]: 100 nM; koff [1]: 0.001 s⁻¹; kon [1]: 10000 M⁻¹ s⁻¹; Kd [2]: 100 nM; koff [2]: 0.001 s⁻¹; kon [2]: 10000 M⁻¹ s⁻¹
2 | 23.3 nM | 0.013 s⁻¹ | 559000 M⁻¹ s⁻¹ | 10 nM | 0.00283 s⁻¹ | 282000 M⁻¹ s⁻¹ | 35.1 nM | 0.0122 s⁻¹ | 348000 M⁻¹ s⁻¹ | 23.7 nM | 0.00318 s⁻¹ | 134000 M⁻¹ s⁻¹ | monovalent anti-CD28/sPD-1 wt (bispecific antibody, also called Monovalent anti-CD28/sPD-1 Wild type structure; bispecific protein complex A:B-C-X:C'-Y) light: DIELTQSPASLAVSLGQRATISCRASESVEYYVTSLMQWYQQKPGQPPKLLIFAASNVESGVPARFSGSGSGTNFSLNIHPVDEDDVAMYFCQQSRKVPYTFGGGTKLEIKRTVAAPSVFIFPPSDEQLKSGTASVVCLLNNFYPREAKVQWKVDNALQSGNSQESVTEQDSKDSTYSLSSTLTLSKADYEKHKVYACEVTHQGLSSPVTKSFNRGEC heavy: not shown not shown | –
3 | – | – | – | – | – | – | – | – | – | – | – | – | bivalent anti-CD28/sPD-1 mut (bispecific antibody, human IgG1, kappa, The sPD-1 fragments carry G124S, K131Y and A132I; also called Bi Mut; Bivalent anti-CD28/sPD-1 Mutated structure) light: DIELTQSPASLAVSLGQRATISCRASESVEYYVTSLMQWYQQKPGQPPKLLIFAASNVESGVPARFSGSGSGTNFSLNIHPVDEDDVAMYFCQQSRKVPYTFGGGTKLEIKRTVAAPSVFIFPPSDEQLKSGTASVVCLLNNFYPREAKVQWKVDNALQSGNSQESVTEQDSKDSTYSLSSTLTLSKADYEKHKVYACEVTHQGLSSPVTKSFNRGEC heavy: EVKLQQSGPGLVTPSQSLSITCTVSGFSLSDYGVHWVRQSPGQGLEWLGVIWAGGGTNYNSALMSRKSISKDNSKSQVFLKMNSLQADDTAVYYCARDKGYSYYYSMDYWGQGTSVTVSSASTKGPSVFPLAPSSKSTSGGTAALGCLVKDYFPEPVTVSWNSGALTSGVHTFPAVLQSSGLYSLSSVVTVPSSSLGTQTYICNVNHKPSNTKVDKRVEPKSCDKTHTCPPCPAPEFEGGPSVFLFPPKPKDTLMISRTPEVTCVVVDVSHEDPEVKFNWYVDGVEVHNAKTKPREEQYNSTYRVVSVLTVLHQDWLNGKEYKCKVSNKALPASIEKTISKAKGQPREPQVYTLPPSREEMTKNQVSLTCLVKGFYPSDIAVEWESNGQPENNYKTTPPVLDSDGSFFLYSKLTVDKSRWQQGNVFSCSVMHEALHNHYTQKSLSLSPGGGGSGGGGSGGGGSLDSPDRPWNPPTFSPALLVVTEGDNATFTCSFSNTSESFVLNWYRMSPSNQTDKLAAFPEDRSQPGQDCRFRVTQLPNGRDFHMSVVRARRNDSGTYLCSAISLAPYIQIKESLRAELRVTERRAEVPTAHPSPSPRPAGQFQ | Kd [7]: 1.21 nM; koff [7]: 0.000698 s⁻¹; kon [7]: 578000 M⁻¹ s⁻¹; Kd [8]: 0.774 nM; koff [8]: 0.0003 s⁻¹; kon [8]: 387000 M⁻¹ s⁻¹; Kd [9]: 1.65 nM; koff [9]: 0.00055 s⁻¹; kon [9]: 334000 M⁻¹ s⁻¹; Kd [10]: 0.883 nM; koff [10]: 0.000153 s⁻¹; kon [10]: 174000 M⁻¹ s⁻¹
4 | 1.57 nM | 0.00083 s⁻¹ | 528000 M⁻¹ s⁻¹ | 1.05 nM | 0.000342 s⁻¹ | 324000 M⁻¹ s⁻¹ | 2.17 nM | 0.00061 s⁻¹ | 281000 M⁻¹ s⁻¹ | 1.33 nM | 0.000183 s⁻¹ | 138000 M⁻¹ s⁻¹ | monovalent anti-CD28/sPD-1 mut (bispecific antibody, The sPD-1 fragments carry G124S, K131Y and A132I (numbering of full-length human PD-1); also called Mono Mut; Monovalent anti-CD28/sPD-1 Mutated structure) light: DIELTQSPASLAVSLGQRATISCRASESVEYYVTSLMQWYQQKPGQPPKLLIFAASNVESGVPARFSGSGSGTNFSLNIHPVDEDDVAMYFCQQSRKVPYTFGGGTKLEIKRTVAAPSVFIFPPSDEQLKSGTASVVCLLNNFYPREAKVQWKVDNALQSGNSQESVTEQDSKDSTYSLSSTLTLSKADYEKHKVYACEVTHQGLSSPVTKSFNRGEC heavy: EVKLQQSGPGLVTPSQSLSITCTVSGFSLSDYGVHWVRQSPGQGLEWLGVIWAGGGTNYNSALMSRKSISKDNSKSQVFLKMNSLQADDTAVYYCARDKGYSYYYSMDYWGQGTSVTVSSASTKGPSVFPLAPSSKSTSGGTAALGCLVKDYFPEPVTVSWNSGALTSGVHTFPAVLQSSGLYSLSSVVTVPSSSLGTQTYICNVNHKPSNTKVDKRVEPKSCDKTHTCPPCPAPEFEGGPSVFLFPPKPKDTLMISRTPEVTCVVVDVSHEDPEVKFNWYVDGVEVHNAKTKPREEQYNSTYRVVSVLTVLHQDWLNGKEYKCKVSNKALPASIEKTISKAKGQPREPQVYTLPPSREEMTKNQVSLTCLVKGFYPSDIAVEWESNGQPENNYKTTPPVLDSDGSFFLYSKLTVDKSRWQQGNVFSCSVMHEALHNHYTQKSLSLSPGGGGSGGGGSGGGGSLDSPDRPWNPPTFSPALLVVTEGDNATFTCSFSNTSESFVLNWYRMSPSNQTDKLAAFPEDRSQPGQDCRFRVTQLPNGRDFHMSVVRARRNDSGTYLCSAISLAPYIQIKESLRAELRVTERRAEVPTAHPSPSPRPAGQFQ DKTHTCPPCPAPEFEGGPSVFLFPPKPKDTLMISRTPEVTCVVVDVSHEDPEVKFNWYVDGVEVHNAKTKPREEQYNSTYRVVSVLTVLHQDWLNGKEYKCKVSNKALPASIEKTISKAKGQPREPQVYTLPPSREEMTKNQVSLTCLVKGFYPSDIAVEWESNGQPENNYKTTPPVLDSDGSFFLYSKLTVDKSRWQQGNVFSCSVMHEALHNHYTQKSLSLSPGGGGSGGGGSGGGGSLDSPDRPWNPPTFSPALLVVTEGDNATFTCSFSNTSESFVLNWYRMSPSNQTDKLAAFPEDRSQPGQDCRFRVTQLPNGRDFHMSVVRARRNDSGTYLCSAISLAPYIQIKESLRAELRVTERRAEVPTAHPSPSPRPAGQFQ | –
